# According to the MegaScale stability set (Tsuboyama et al. 2023):
# B1: EHEE_rd2_1257 (parent)
# chain: EEERTFTNEEEARKAKKEAEKRGLRVTVTKDGTTWRVRIG
# Variants of: B1
# Assay: folding stability dG (cDNA display proteolysis); higher = more stable
# Conditions: PBS, room temperature
row,Variant,folding stability dG [kcal/mol]
1,REERTFTNEEEARKAKKEAEKRGLRVTVTKDGTTWRVRIG [E1R],1.83
2,IEERTFTNEEEARKAKKEAEKRGLRVTVTKDGTTWRVRIG [E1I],2.74
3,AEERTFTNEEEARKAKKEAEKRGLRVTVTKDGTTWRVRIG [E1A],2.21
4,TEERTFTNEEEARKAKKEAEKRGLRVTVTKDGTTWRVRIG [E1T],2.19
5,LEERTFTNEEEARKAKKEAEKRGLRVTVTKDGTTWRVRIG [E1L],2.33
6,VEERTFTNEEEARKAKKEAEKRGLRVTVTKDGTTWRVRIG [E1V],2.57
7,PEERTFTNEEEARKAKKEAEKRGLRVTVTKDGTTWRVRIG [E1P],2.07
8,KEERTFTNEEEARKAKKEAEKRGLRVTVTKDGTTWRVRIG [E1K],1.7
9,SEERTFTNEEEARKAKKEAEKRGLRVTVTKDGTTWRVRIG [E1S],2.02
10,MEERTFTNEEEARKAKKEAEKRGLRVTVTKDGTTWRVRIG [E1M],2.38
11,FEERTFTNEEEARKAKKEAEKRGLRVTVTKDGTTWRVRIG [E1F],2.99
12,GEERTFTNEEEARKAKKEAEKRGLRVTVTKDGTTWRVRIG [E1G],2.25
13,WEERTFTNEEEARKAKKEAEKRGLRVTVTKDGTTWRVRIG [E1W],3.19
14,DEERTFTNEEEARKAKKEAEKRGLRVTVTKDGTTWRVRIG [E1D],2.1
15,YEERTFTNEEEARKAKKEAEKRGLRVTVTKDGTTWRVRIG [E1Y],3.06
16,HEERTFTNEEEARKAKKEAEKRGLRVTVTKDGTTWRVRIG [E1H],2.05
17,QEERTFTNEEEARKAKKEAEKRGLRVTVTKDGTTWRVRIG [E1Q],1.94
18,NEERTFTNEEEARKAKKEAEKRGLRVTVTKDGTTWRVRIG [E1N],1.87
19,EEWRTFTNEEEARKAKKEAEKRGLRVTVTKDGTTWRVRIG [E3W],2.3
20,EEVRTFTNEEEARKAKKEAEKRGLRVTVTKDGTTWRVRIG [E3V],2.33
21,EEIRTFTNEEEARKAKKEAEKRGLRVTVTKDGTTWRVRIG [E3I],2.48

row,Variant,folding stability dG [kcal/mol]
1,EEFRTFTNEEEARKAKKEAEKRGLRVTVTKDGTTWRVRIG [E3F],2
2,EEKRTFTNEEEARKAKKEAEKRGLRVTVTKDGTTWRVRIG [E3K],0.758
3,EEHRTFTNEEEARKAKKEAEKRGLRVTVTKDGTTWRVRIG [E3H],1.42
4,EESRTFTNEEEARKAKKEAEKRGLRVTVTKDGTTWRVRIG [E3S],1.66
5,EETRTFTNEEEARKAKKEAEKRGLRVTVTKDGTTWRVRIG [E3T],1.99
6,EEQRTFTNEEEARKAKKEAEKRGLRVTVTKDGTTWRVRIG [E3Q],1.44
7,EEYRTFTNEEEARKAKKEAEKRGLRVTVTKDGTTWRVRIG [E3Y],2.08
8,EENRTFTNEEEARKAKKEAEKRGLRVTVTKDGTTWRVRIG [E3N],1.37
9,EEPRTFTNEEEARKAKKEAEKRGLRVTVTKDGTTWRVRIG [E3P],0.936
10,EEMRTFTNEEEARKAKKEAEKRGLRVTVTKDGTTWRVRIG [E3M],1.88
11,EEDRTFTNEEEARKAKKEAEKRGLRVTVTKDGTTWRVRIG [E3D],1.67
12,EEGRTFTNEEEARKAKKEAEKRGLRVTVTKDGTTWRVRIG [E3G],1.28
13,EELRTFTNEEEARKAKKEAEKRGLRVTVTKDGTTWRVRIG [E3L],2
14,EEARTFTNEEEARKAKKEAEKRGLRVTVTKDGTTWRVRIG [E3A],1.34
15,EERRTFTNEEEARKAKKEAEKRGLRVTVTKDGTTWRVRIG [E3R],0.931
16,EGERTFTNEEEARKAKKEAEKRGLRVTVTKDGTTWRVRIG [E2G],1.66
17,EHERTFTNEEEARKAKKEAEKRGLRVTVTKDGTTWRVRIG [E2H],2.12
18,EMERTFTNEEEARKAKKEAEKRGLRVTVTKDGTTWRVRIG [E2M],2.16
19,EWERTFTNEEEARKAKKEAEKRGLRVTVTKDGTTWRVRIG [E2W],2.86
20,EQERTFTNEEEARKAKKEAEKRGLRVTVTKDGTTWRVRIG [E2Q],1.99
21,ESERTFTNEEEARKAKKEAEKRGLRVTVTKDGTTWRVRIG [E2S],2.06

row,Variant,folding stability dG [kcal/mol]
1,EPERTFTNEEEARKAKKEAEKRGLRVTVTKDGTTWRVRIG [E2P],1.43
2,ELERTFTNEEEARKAKKEAEKRGLRVTVTKDGTTWRVRIG [E2L],2.26
3,EDERTFTNEEEARKAKKEAEKRGLRVTVTKDGTTWRVRIG [E2D],1.75
4,EYERTFTNEEEARKAKKEAEKRGLRVTVTKDGTTWRVRIG [E2Y],2.85
5,EKERTFTNEEEARKAKKEAEKRGLRVTVTKDGTTWRVRIG [E2K],1.73
6,ERERTFTNEEEARKAKKEAEKRGLRVTVTKDGTTWRVRIG [E2R],1.97
7,ENERTFTNEEEARKAKKEAEKRGLRVTVTKDGTTWRVRIG [E2N],1.81
8,EAERTFTNEEEARKAKKEAEKRGLRVTVTKDGTTWRVRIG [E2A],1.75
9,EVERTFTNEEEARKAKKEAEKRGLRVTVTKDGTTWRVRIG [E2V],2.3
10,ETERTFTNEEEARKAKKEAEKRGLRVTVTKDGTTWRVRIG [E2T],2.18
11,EIERTFTNEEEARKAKKEAEKRGLRVTVTKDGTTWRVRIG [E2I],2.5
12,EFERTFTNEEEARKAKKEAEKRGLRVTVTKDGTTWRVRIG [E2F],2.6
13,EEEITFTNEEEARKAKKEAEKRGLRVTVTKDGTTWRVRIG [R4I],2.38
14,EEEETFTNEEEARKAKKEAEKRGLRVTVTKDGTTWRVRIG [R4E],1.37
15,EEEATFTNEEEARKAKKEAEKRGLRVTVTKDGTTWRVRIG [R4A],1.59
16,EEEDTFTNEEEARKAKKEAEKRGLRVTVTKDGTTWRVRIG [R4D],0.771
17,EEELTFTNEEEARKAKKEAEKRGLRVTVTKDGTTWRVRIG [R4L],2.8
18,EEEKTFTNEEEARKAKKEAEKRGLRVTVTKDGTTWRVRIG [R4K],1.97
19,EEEHTFTNEEEARKAKKEAEKRGLRVTVTKDGTTWRVRIG [R4H],2.17
20,EEEGTFTNEEEARKAKKEAEKRGLRVTVTKDGTTWRVRIG [R4G],1.14
21,EEEFTFTNEEEARKAKKEAEKRGLRVTVTKDGTTWRVRIG [R4F],2.97
